Assay results taken from patent publication US20190016825A1 (JIANGSU HENGRUI MEDICINE, published 2019).
Where a chain is given by its changes, count along the chain named. One block for each binder: values may come before it.

How the values were obtained:
[1] = target: T1, PCSK9-D374Y-BP15-His6 (human, UniProt Q8NBP7 31-692, biotin on the BP15 biotin receiving peptide); assay: ELISA, bio-PCSK9-Y captured on streptavidin plate
T1 construct: also called PCSK9-Y; mutant PCSK9
Procedure: The binding ability of anti-PCSK9 antibodies of the present invention to PCSK9-Y was detected by measuring the amount of antibodies binding to PCSK9-Y (mutant PCSK9, SEQ ID NO: 6) fixed on the ELISA plate.
Streptavidin (sigma, CAT#54762) was diluted to 2 μg/ml with PBS and coated into 96-well ELISA plate at 4° C. overnight. The plate was washed and then blocked with Tris buffer (including 0.9 mM CaCl₂, 0.05% Tween 20 and 5% skim milk) at 37° C. for 2 hours. Then the plate was washed again and 100 μl/well of the biotin-labeled PCSK9-Y, produced in-house, (bio-PCSK9-Y, diluted with Tris buffer containing 0.9 mM CaCl₂, 0.05% Tween 20 and 1% skim milk) was added and incubated at 37° C. for 1 hour. After the wash step, different concentrations of diluted PCSK9 antibody samples were added to the plate and incubated at 37° C. for 1 hour. Then the plate was washed again and HRP-goat-anti-human (H+L) antibody (Jackson ImmunoResearch, CAT#109-035-088) was added and incubated at 37° C. for 1 hour. Then the plate was washed again and tetramethylbenzidine solution was added for development. Finally, the stop solution was added and the OD450 value was measured on the Microplate reader, and then EC50 was calculated.
The results of ELISA test for the binding ability of chimeric antibodies and back-mutated antibodies of the present invention to mutant PCSK9 are shown in table 6.

[2] = target: T2, PCSK9-BP15-His6 (human, UniProt Q8NBP7 31-692, biotin on the BP15 biotin receiving peptide); assay: ELISA, bio-WT-PCSK9 captured on streptavidin plate
T2 construct: It holds a signal peptide (underlined in print); also called WT PCSK9; bio-WT-PCSK9
Procedure: The binding ability of anti-PCSK9 antibodies of the present invention to PCSK9 was detected by measuring the amount of antibodies binding to wild-type PCSK9 protein (WT PCSK9, SEQ ID NO: 5) fixed on the ELISA plate.
Streptavidin (sigma, CAT#S4762) was diluted to 2 μg/ml with PBS and coated into 96-well ELISA plate, at 4° C. overnight. The plate was washed and then blocked with Tris buffer (including 0.9 mM CaCl2, 0.05% Tween 20 and 5% skim milk) at 37° C. for 2 hours. Then the plate was washed again and 100 μl/well of the biotin-labeled PCSK9, produced in-house, (bio-WT-PCSK9, diluted with Tris buffer containing 0.9 mM CaCl2, 0.05% Tween 20 and 1% skim milk), was added and incubated at 37° C. for 1 hour. After the wash step, different concentrations of diluted PCSK9 antibody samples was added to the plate and incubated at 37° C. for 1 hour. Then the plate was washed again and HRP-goat-anti-human (H+L) antibody (Jackson ImmunoResearch, CAT#109-035-088) was added and incubated at 37° C. for 1 hour. Then the plate was washed again and tetramethylbenzidine solution was added for development. Finally, the stop solution was added and the OD450 value was measured on the Microplate reader, and then EC50 was calculated.

[3] = target: T1, PCSK9-D374Y-BP15-His6; assay: blocking ELISA, LDLR-FC (SEQ ID NO: 8) coated, bio-PCSK9-Y plus antibody
Procedure: The blocking abilities of anti-PCSK9 antibodies to the binding of LDLR-FC (SEQ ID NO: 8) to PCSK9-Y (mutant PCSK9, SEQ ID NO: 6) were detected by measuring the amount of PCSK9-Y binding to LDLR in the presence of the antibodies.
LDLR-FC was diluted to 2 μg/ml with phosphate buffer and coated in the 96-well ELISA plate (Costar, CAT#3590), then incubated at 4° C. overnight. The plate was washed and then blocked with Tris buffer (including 0.9 mM CaCl₂, 0.05% Tween 20 and 5% skim milk) at 37° C. for 2 hours. Then the plate was washed again and 100 μl/well of the mixture of biotin-labeled PCSK9-Y (bio-PCSK9-Y, diluted to final concentration of […] with Tris buffer containing 0.9 mM CaCl₂, 0.05% Tween 20 and 1% skim milk) and antibody samples (diluted with Tris buffer containing 0.9 mM CaCl₂, 0.05% Tween 20 and 1% skim milk) were added and incubated at 37° C. for 1 hour. Then the plate was washed again and horseradish peroxidase-streptavidin (sigma, CAT#S2438) was added and incubated at 37° C. for 1 hour. Then the plate was washed and tetramethylbenzidine solution was added for development. Finally, the stop solution was added and the OD450 value was measured on the Microplate reader, then IC50 was calculated.
The results of blocking test for the blocking effects of the chimeric antibodies and back-mutated antibodies of the present invention on the binding of LDLR-FC/PCSK9-Y are shown in table 7.

[4] = target: T2, PCSK9-BP15-His6; assay: blocking ELISA, LDLR-FC (SEQ ID NO: 8) coated, bio-WT-PCSK9 plus antibody
Procedure: The blocking abilities of PCSK9 antibodies of the present invention to the binding of LDLR-FC (produced in-house, sequence is shown in SEQ ID NO: 8) to PCSK9 (SEQ ID NO: 5) were detected by measuring the amount of PCSK9 binding to LDLR in the presence of the antibodies.
LDLR-FC was diluted to 5 μg/ml with phosphate buffer and coated in the 96-well ELISA plate, then incubated at 4° C. overnight. The plate was washed and then blocked with Tris buffer (including 0.9 mM CaCl₂, 0.05% Tween 20 and 5% skim milk) at 37° C. for 2 hours. Then the plate was washed again and 100 μl/well of the mixture of biotin-labeled PCSK9 (bio-WT-PCSK9, diluted to the final concentration of 2 μg/ml with Tris buffer containing 0.9 mM CaCl₂, 0.05% Tween 20 and 1% skim milk) and antibody samples (diluted with Tris buffer containing 0.9 mM CaCl₂, 0.05% Tween 20 and 1% skim milk) were added and incubated at 37° C. for 1 hour. Then the plate was washed again and horseradish peroxidase-streptavidin (Sigma, CAT#52438) was added and incubated at 37° C. for 1 hour. Then the plate was washed and tetramethylbenzidine solution was added for development. Finally, the stop solution was added and the OD450 was measured on the Microplate reader, then IC50 was calculated.

B1: h001-14 (antibody, human IgG1, V domains shown)
VH: QVQLVQSGAEVKKPGASVKVSCKASGYTFNDYWMHWVRQAPGQGLEWMGYINPSSGFTKYHQNFKDRVTMTRDTSISTAYMELSRLTSDDTAVYYCARQYDYDEDWYFDVWGQGTTVTVSS
VL: DIQMTQSPSSLSASVGDRVTITCKSSQSLLNSRTRKNFLAWYQQKPGKAPKLLIYWASTRESGVPDRFSGSGSGTDFTLTISSLQPEDFATYYCKQSFNLFTFGQGTKLEIK
notes: Variable regions only; also called h001_VH.1C + h001_VL.1A
EC50 [1]: 0.0112 µg/mL | EC50 [2]: 0.0084 µg/mL

B2: h001-3 (antibody, human IgG1, V domains shown)
VH: B1 VH with N30T, T87R
VL: B1 VL with T5S
notes: Variable regions only; also called h001_VH.1 + h001_VL.1B
IC50 [3]: 0.475 µg/mL | EC50 [1]: 0.0152 µg/mL | IC50 [4]: 0.702 µg/mL | EC50 [2]: 0.0113 µg/mL

B3: h001-12 (antibody, human IgG1, V domains shown)
VH: B1 VH with N30T
VL: B1 VL with Q3V, T5S, A49S
notes: Variable regions only; also called h001_VH.1B + h001_VL.1C
EC50 [1]: 0.0124 µg/mL | EC50 [2]: 0.0103 µg/mL

B4: h001-13 (antibody, human IgG1, V domains shown)
VH: B1 VH
VL: B1 VL with D66S
notes: Variable regions only; also called h001_VH.1C + h001_VL.1
EC50 [1]: 0.0096 µg/mL | EC50 [2]: 0.0071 µg/mL

B5: h001-7 (antibody, human IgG1, V domains shown)
VH: B1 VH with T87R
VL: B1 VL with T5S
notes: Variable regions only; also called h001_VH.1A + h001_VL.1B
IC50 [3]: 0.515 µg/mL | EC50 [1]: 0.0137 µg/mL | IC50 [4]: 0.652 µg/mL | EC50 [2]: 0.012 µg/mL

B6: h001-8 (antibody, human IgG1, V domains shown)
VH: B1 VH with T87R
VL: B1 VL with Q3V, T5S, A49S
notes: Variable regions only; also called h001_VH.1A + h001_VL.1C
IC50 [3]: 0.414 µg/mL | EC50 [1]: 0.0165 µg/mL | IC50 [4]: 0.774 µg/mL | EC50 [2]: 0.009 µg/mL

B8: h001-9 (antibody, human IgG1, V domains shown)
VH: B1 VH with N30T
VL: B1 VL with D66S
notes: Variable regions only; also called h001_VH.1B + h001_VL.1
IC50 [3]: 0.52 µg/mL | EC50 [1]: 0.0194 µg/mL | IC50 [4]: 0.923 µg/mL | EC50 [2]: 0.0136 µg/mL

B10: h001-1 (antibody, human IgG1, V domains shown)
VH: B1 VH with N30T, T87R
VL: B1 VL with D66S
notes: Variable regions only; also called h001_VH.1 + h001_VL.1
IC50 [3]: 0.566 µg/mL | EC50 [1]: 0.0132 µg/mL | IC50 [4]: 0.5 µg/mL | EC50 [2]: 0.0084 µg/mL

B12: h001-11 (antibody, human IgG1, V domains shown)
VH: B1 VH with N30T
VL: B1 VL with T5S
notes: Variable regions only; also called h001_VH.1B + h001_VL.1B
EC50 [1]: 0.017 µg/mL | EC50 [2]: 0.0129 µg/mL

B15: h001-2 (antibody, human IgG1, V domains shown)
VH: B1 VH with N30T, T87R
VL: B1 VL
notes: Variable regions only; also called h001_VH.1 + h001_VL.1A
IC50 [3]: 0.455 µg/mL | EC50 [1]: 0.0157 µg/mL | IC50 [4]: 0.675 µg/mL | EC50 [2]: 0.0123 µg/mL

B16: h001-15 (antibody, human IgG1, V domains shown)
VH: B1 VH
VL: B1 VL with T5S
notes: Variable regions only; also called h001_VH.1C + h001_VL.1B
EC50 [1]: 0.0178 µg/mL | EC50 [2]: 0.011 µg/mL

B19: h001-5 (antibody, human IgG1, V domains shown)
VH: B1 VH with T87R
VL: B1 VL with D66S
notes: Variable regions only; also called h001_VH.1A + h001_VL.1
IC50 [3]: 0.468 µg/mL | EC50 [1]: 0.0152 µg/mL | IC50 [4]: 4.32 µg/mL | EC50 [2]: 0.0141 µg/mL

B20: h001-6 (antibody, human IgG1, V domains shown)
VH: B1 VH with T87R
VL: B1 VL
notes: Variable regions only; also called h001_VH.1A + h001_VL.1A
IC50 [3]: 0.437 µg/mL | EC50 [1]: 0.0144 µg/mL | IC50 [4]: 0.662 µg/mL | EC50 [2]: 0.01 µg/mL

The next lines start with the values.

EC50 [1]: 0.017 µg/mL | EC50 [2]: 0.0126 µg/mL
B7: h001-20 (antibody, human IgG1, V domains shown)
VH: B1 VH with R72A, T74K
VL: B1 VL with Q3V, T5S, A49S
notes: Variable regions only; also called h001_VH.1D + h001_VL.1C

EC50 [1]: 0.017 µg/mL | EC50 [2]: 0.0092 µg/mL
B9: h001-24 (antibody, human IgG1, V domains shown)
VH: B1 VH with R38K, M48I, R67K, V68A, M70L, R72A, T74K
VL: B1 VL with Q3V, T5S, A49S
notes: Variable regions only; also called h001_VH.1E + h001_VL.1C

EC50 [1]: 0.0191 µg/mL | EC50 [2]: 0.0147 µg/mL
B11: h001-18 (antibody, human IgG1, V domains shown)
VH: B1 VH with R72A, T74K
VL: B1 VL
notes: Variable regions only; also called h001_VH.1D + h001_VL.1A

EC50 [1]: 0.0119 µg/mL | EC50 [2]: 0.0145 µg/mL
B13: h001-21 (antibody, human IgG1, V domains shown)
VH: B1 VH with R38K, M48I, R67K, V68A, M70L, R72A, T74K
VL: B1 VL with D66S
notes: Variable regions only; also called h001_VH.1E + h001_VL.1

EC50 [1]: 0.0161 µg/mL | EC50 [2]: 0.0114 µg/mL
B14: h001-17 (antibody, human IgG1, V domains shown)
VH: B1 VH with R72A, T74K
VL: B1 VL with D66S
notes: Variable regions only; also called h001_VH.1D + h001_VL.1

EC50 [1]: 0.0204 µg/mL | EC50 [2]: 0.0139 µg/mL
B17: h001-19 (antibody, human IgG1, V domains shown)
VH: B1 VH with R72A, T74K
VL: B1 VL with T5S
notes: Variable regions only; also called h001_VH.1D + h001_VL.1B

EC50 [1]: 0.0125 µg/mL | EC50 [2]: 0.0118 µg/mL
B18: h001-23 (antibody, human IgG1, V domains shown)
VH: B1 VH with R38K, M48I, R67K, V68A, M70L, R72A, T74K
VL: B1 VL with T5S
notes: Variable regions only; also called h001_VH.1E + h001_VL.1B

EC50 [1]: 0.0111 µg/mL | EC50 [2]: 0.0082 µg/mL
B21: h001-16 (antibody, human IgG1, V domains shown)
VH: B1 VH
VL: B1 VL with Q3V, T5S, A49S
notes: Variable regions only; also called h001_VH.1C + h001_VL.1C

EC50 [1]: 0.0111 µg/mL | EC50 [2]: 0.0123 µg/mL
B22: h001-22 (antibody, human IgG1, V domains shown)
VH: B1 VH with R38K, M48I, R67K, V68A, M70L, R72A, T74K
VL: B1 VL
notes: Variable regions only; also called h001_VH.1E + h001_VL.1A
